Experimental data published in publication PMC2625307.

Experiments:
[1] = molecular target: SIVcpz GAB-1 fl envelope (SIVcpz (P.t.t)) (UniProt P17281)
[2] = molecular target: HIV-1 MN-8 envelope (HIV-1 group M)
[3] = molecular target: HIV-1 SUMA d736-73 envelope (HIV-1 group M)
[4] = molecular target: HIV-1 WEAU 16-8M envelope (HIV-1 group M)
[5] = molecular target: SIVcpz GAB-2 62 fl envelope (SIVcpz (P.t.t))
[6] = molecular target: HIV-1 NL4.3 envelope (HIV-1 group M)
[7] = molecular target: HIV-1 MN-25 envelope (HIV-1 group M)
[8] = molecular target: HIV-1 SUMA d736-68 envelope (HIV-1 group M)
[Phe^23]M47 = SPR
CD4M47 = experiment: SPR
CD4M33 = experiment: SPR
[Phe^23]M33 = SPR

Sequence of SIVcpz GAB-1 fl envelope (SIVcpz (P.t.t)) (P17281 32-854): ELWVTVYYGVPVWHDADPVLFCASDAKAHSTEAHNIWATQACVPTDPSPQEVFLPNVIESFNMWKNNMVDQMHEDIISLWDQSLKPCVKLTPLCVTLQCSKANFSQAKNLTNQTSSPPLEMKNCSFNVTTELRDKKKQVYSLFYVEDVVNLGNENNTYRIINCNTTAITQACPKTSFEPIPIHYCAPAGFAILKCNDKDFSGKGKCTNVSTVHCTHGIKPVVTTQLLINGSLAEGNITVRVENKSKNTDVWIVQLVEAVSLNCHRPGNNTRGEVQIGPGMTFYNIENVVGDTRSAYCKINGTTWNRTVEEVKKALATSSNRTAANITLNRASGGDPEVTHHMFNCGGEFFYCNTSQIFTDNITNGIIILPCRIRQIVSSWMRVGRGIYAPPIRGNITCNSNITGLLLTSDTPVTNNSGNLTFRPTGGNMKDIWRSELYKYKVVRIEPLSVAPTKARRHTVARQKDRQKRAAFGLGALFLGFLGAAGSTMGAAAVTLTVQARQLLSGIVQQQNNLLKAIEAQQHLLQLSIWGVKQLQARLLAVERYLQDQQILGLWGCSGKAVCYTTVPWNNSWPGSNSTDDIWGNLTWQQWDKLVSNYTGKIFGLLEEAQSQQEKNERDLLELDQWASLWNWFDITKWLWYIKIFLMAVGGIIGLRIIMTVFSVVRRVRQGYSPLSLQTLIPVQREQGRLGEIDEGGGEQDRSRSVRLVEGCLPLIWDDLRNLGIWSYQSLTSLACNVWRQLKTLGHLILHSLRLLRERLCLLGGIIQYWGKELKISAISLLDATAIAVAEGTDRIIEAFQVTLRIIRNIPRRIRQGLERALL

| Substance | IC50 of neutralisation, HIV-entry assay on JC53BL-13 indicator cells [1] | IC50 of neutralisation, HIV-entry assay on JC53BL-13 indicator cells [2] | IC50 of neutralisation, HIV-entry assay on JC53BL-13 indicator cells [3] | IC50 of neutralisation, HIV-entry assay on JC53BL-13 indicator cells [4] | IC50 of neutralisation, HIV-entry assay on JC53BL-13 indicator cells [5] | IC50 of neutralisation, HIV-entry assay on JC53BL-13 indicator cells [6] | IC50 of neutralisation, HIV-entry assay on JC53BL-13 indicator cells [7] | IC50 of neutralisation, HIV-entry assay on JC53BL-13 indicator cells [8] | Kd ([Phe^23]M47) | koff ([Phe^23]M47) | kon ([Phe^23]M47) | Kd (CD4M47) | koff (CD4M47) | kon (CD4M47) | Kd (CD4M33) | koff (CD4M33) | kon (CD4M33) | Kd ([Phe^23]M33) | koff ([Phe^23]M33) | kon ([Phe^23]M33) |
| --- | --- | --- | --- | --- | --- | --- | --- | --- | --- | --- | --- | --- | --- | --- | --- | --- | --- | --- | --- | --- |
| CD4M33 (designed binder) | 340 nM | 34 nM | 480 nM | 85 nM | 400 nM | 5 nM | 350 nM | 4 nM | – | – | – | – | – | – | – | – | – | – | – | – |
| CD4M47 (designed binder) | 150 nM | 11 nM | 370 nM | 64 nM | 230 nM | 3 nM | 150 nM | 3 nM | – | – | – | – | – | – | – | – | – | – | – | – |
| YU2 gp120 (from UniProt P35961 32-498) (natural protein) | – | – | – | – | – | – | – | – | 3.87 nM | 0.000427 s⁻¹ | 110000 M⁻¹ s⁻¹ | 2.12 nM | 0.000741 s⁻¹ | 349000 M⁻¹ s⁻¹ | 12.5 nM | 0.00272 s⁻¹ | 218000 M⁻¹ s⁻¹ | 35.1 nM | 0.00475 s⁻¹ | 135000 M⁻¹ s⁻¹ |
| [Phe^23]M33 (designed binder) | 350 nM | 85 nM | 8500 nM | 130 nM | 1000 nM | 13 nM | 3600 nM | – | – | – | – | – | – | – | – | – | – | – | – | – |
| [Phe^23]M47 (designed binder) | 69 nM | 15 nM | 950 nM | 47 nM | 290 nM | 4 nM | 320 nM | 7 nM | – | – | – | – | – | – | – | – | – | – | – | – |
